In paper PMC11676163, “Comparison of Two Chelator Scaffolds as Basis for Cholecystokinin-2 Receptor Targeting Bimodal Imaging Probes” (Pharmaceuticals, 2024):
“And” between values parts separate entries of the source, which are not always exact repeats. Equal entries are not always repeated.

Tests used:
CCK2 receptor = molecular target: T1, CCK2 receptor (Homo sapiens, UniProt P32239); assay: Receptor-binding affinity, competition against [^177Lu]Lu-DOTA-MGS5 on A431-CCK2R cells; details: metal-free compounds, vs [^177Lu]Lu-DOTA-MGS5, 1 h RT
T1 construct: expressed in transfected cells; host or cells: A431 human squamous carcinoma cells (A431-CCK2R), provided by Dr. Luigi Aloj
T1 sequence (P32239 1-447): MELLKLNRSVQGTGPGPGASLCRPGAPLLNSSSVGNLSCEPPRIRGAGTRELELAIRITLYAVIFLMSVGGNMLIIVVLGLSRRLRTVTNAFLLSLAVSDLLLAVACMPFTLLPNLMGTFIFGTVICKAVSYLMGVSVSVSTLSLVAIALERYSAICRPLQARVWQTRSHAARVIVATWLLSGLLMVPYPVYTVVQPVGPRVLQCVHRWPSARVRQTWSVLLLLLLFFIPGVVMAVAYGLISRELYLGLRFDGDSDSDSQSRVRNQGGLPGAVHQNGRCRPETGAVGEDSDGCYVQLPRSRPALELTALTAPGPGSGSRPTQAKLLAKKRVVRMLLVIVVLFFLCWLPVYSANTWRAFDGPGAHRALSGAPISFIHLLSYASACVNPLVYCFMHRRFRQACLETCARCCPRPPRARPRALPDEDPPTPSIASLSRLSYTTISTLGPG
Method: A total of 5 µg of DOTA-MGS5 were radiolabelled with 20 µL of [^177Lu]LuCl3 solution (300–400 MBq; 90–95 GBq/µmol) and 30 µL of 0.4 M sodium acetate/0.24 M gentisic acid solution with pH 5. The labelling mixture was heated at 90 °C for 20 min. At the end, the solution was diluted to a concentration of 200 nM and stored in a freezer for further use. Binding assays were carried out in 96-well filter plates (Multi-ScreenHTS-FB, Merck Group, Darmstadt, Germany) pretreated with 10 mM TRIS/139 mM NaCl buffer at pH 7.4 (TRIS-buffer) (2 × 250 μL) before 400,000 A431-CCK2R cells per well were added in 20 mM HEPES buffer at pH 7.4 containing 10 mM MgCl2, 14 μM bacitracin, and 0.5% (w/v) bovine serum albumin (BSA) (binding assay buffer). Competition assays were performed two times in triplicate using increasing concentrations of competitors (0.001–1,000 nM) and a constant amount of radioligands (~30,000 cpm, 0.3 nM). After 1 h of incubation at room temperature (RT), the medium was removed by vacuum filtration and the filters were rapidly rinsed with ice-cold binding assay buffer (2 × 200 μL), removed, and counted in the γ-counter. Half-maximal inhibitory concentration (IC50) values were calculated following non-linear regression with Origin software (MicroCal Origin 6.1, Northampton, MA, USA).

[1] = Distribution coefficient (LogD pH7.4), octan-1-ol/PBS; assay type: physicochemical; details: octan-1-ol/PBS pH 7.4, n = 6
Method: For lipophilicity determination, [^68Ga]Ga-CyTMG and [^68Ga]Ga-CyFMG labelling solutions were diluted with phosphate-buffered saline (PBS, pH7.4) to a concentration of 0.1 µM. A total of 300 µL of this solution was added to an Eppendorf tube containing 300 µL of octan-1-ol. The mixture was shaken at 1400 rpm and at RT for 15 min and centrifuged at 4500× g rpm for 2 min for phase separation. Afterwards, 100 µL of the organic phase and of the aqueous phase were taken out and the activities of the aliquots were quantified in a γ-counter (n = 6). The LogD values were calculated with the following formula:(1) LogDpH7.4=log10  CPMoctanol phase/CPM PBS phase

physchem = assay type: physicochemical; details: buffer or solvent, pH 7.4
Method: For stability and protein binding studies, the labelling solutions were diluted with PBS or human serum to a concentration of 0.5 µM and incubated at 37 °C for 1 h, 2 h, and 4 h (n = 3). In the case of serum stability for each timepoint, 100 uL of the incubated solution was diluted 1:1 with ACN to make the proteins precipitate and the solution was centrifuged for 2 min at 14,000× g rpm. A total of 100 uL of the supernatant was then diluted 1:1 with water and analyzed by radio-HPLC. For stability in PBS, 100 uL of the incubated solution was diluted 1:1 with water and analyzed by radio-HPLC for every timepoint.

A431-CCK2R cells = assay: Cell uptake studies on A431-CCK2R cells; assay type: cell-based, human; details: 0.5 nM, 1 h, 37 °C
Description: (§1) The human squamous carcinoma cell line A431 transfected with human CCK2R (A431-CCK2R) and with the empty vector alone (A431-mock) were originally provided by Dr. Luigi Aloj (Nuclear Medicine Unit, Istituto Nazionale per lo Studio e la Cura dei Tumori “Fondazione Giovanni Pascale”-IRCCS, Naples, Italy). All cell culture media and reagents were purchased from Gibco, Invitrogen (Thermo Fisher Scientific, Vienna, Austria), or Sigma-Aldrich (Darmstadt, Germany) Corporation. Dulbecco's Modified Eagle's medium (DMEM) supplemented with 10% (v/v) fetal bovine serum, FBS (10270, Invitrogen, Thermo Fisher Scientific, Waltham, MA, USA), and 1% (v/v) penicillin-streptomycin-glutamine, PSG (10378, Gibco, Thermo Fisher Scientific, Waltham, MA, USA), was used for cell culture. The cells were grown at 37 °C in a humidified atmosphere with 5% carbon dioxide and were passaged 3 times per week using a 2.5% trypsin-EDTA solution. The cell internalization of the radiolabelled compounds was measured on A431-CCK2R and A431-mock cells. A total of 1.0 × 10^6 cells per well were seeded in 6-well culture plates (Greiner Cellstar, Sigma-Aldrich […] GmbH, Vienna, Austria) and grown for 48 h. On the day of the experiment, each well was washed twice with internalization medium (culturing medium supplemented with 1% (v/v) FBS) and then incubated with 0.5 nM of a radioactive compound for 1 h at 37 °C. After the incubation, the medium was removed and the cells rinsed with 2 × 1 mL of PBS/0.5% (w/v) bovine serum albumin (BSA). Thereafter, they were washed twice with 1 mL of 50 mM glycine buffer (pH 2.8) with 0.1 M NaCl to remove the membrane-bound radiocompound. Finally, the cells were lysed with 2 × 1 mL of 1 M NaOH to determine the internalized radioligand. All fractions were measured in the γ-counter and the percentage of internalized and membrane-bound radiocompounds in relation to the total radioactivity added to the cells was reported.

A431-mock cells = assay: Cell uptake studies on A431-mock cells; assay type: cell-based, human; details: 0.5 nM, 1 h, 37 °C
Description: as §1

in vivo [2] = details: BALB/c, mouse, total radioactivity
Method: For the ex vivo biodistribution study on healthy BALB/c mice, 3 animals per group were injected with 0.14 nmol of radiotracer (1.5 MBq) and then sacrificed after 1, 2, and 4 h. The organs of interest were extracted, weighed, and measured in the γ-counter. Results were expressed as percentages of injected dose per gram tissue (% ID/g).

in vivo [3] = details: athymic BALB/c nude, mouse, total radioactivity
Method: (§2) For the induction of tumour xenografts, 2 × 10^6 of A431-CCK2R or A431-mock cells in 200 μL appropriate medium and Matrigel (1:1) were subcutaneously injected in the right and left flank of each mouse (athymic BALB/c nude), respectively. The tumours were allowed to grow until they had reached a volume of 0.3 to 0.6 cm^3. To evaluate ex vivo biodistribution on tumour models, 3 mouse xenografts were injected with 0.05 nmol of radiotracer (1 MBq) and then sacrificed after 2 h. For the comparative imaging study (PET/CT and in vivo fluorescence imaging), 2 xenograft-bearing mice were injected with 0.3 nmol (6 MBq) of radiotracer. Static PET/CT images of the anesthetized animals in prone position were acquired with a Mediso NanoScan PET/CT small-animal imaging system (Mediso Medical Imaging Systems, Budapest, Hungary) at 1, 2, and 3 h p.i. Image reconstruction was performed via Mediso Tera-Tomo 3D PET iterative reconstruction (Mediso Medical Imaging Systems, Budapest, Hungary). The images were visualized, processed, and quantified in Mediso InterView FUSION (Mediso Medical Imaging Systems, Budapest, Hungary). Quantitative analyses were performed on images of 3 mouse xenografts per compound. The images were normalized to injected activity and animal weight. The results were expressed as percentages of injected dose per gram tissue (% ID/g).

[4] = system: A431-CCK2R / A431-mock xenografts; assay: in vivo; details: mouse
Method: as §2

[5] = system: A431-CCK2R / A431-mock xenografts; assay type: in vivo, mouse; details: for Time after injection from which cancerous tissue could be well delineated by fluorescence imaging: A431-CCK2R xenografts, 0.3 nmol; for Persistence of fluorescence signal in the kidneys: mouse, in vivo
Method: as §2
Near-infrared in vivo fluorescence imaging was conducted with an in vivo MS FX PRO small-animal imaging system (Bruker Biospin Corporation, Woodbridge, CT, USA) and image analysis was performed with Bruker MI SE software v. 7.1.1.20220 (Bruker Biospin Corporation, Woodbridge, CT, USA). The mice were positioned in the system in supine position and scanned at various time intervals up to 72 h p.i. by using an appropriate filter set (excitation = 650 nm and emission = 700 nm) and identical illumination settings (acquisition time = 30 s, f-stop = 2.8, field of view = 100 mm, and binning = 4 × 4). The fluorescence emission was reported as photons/s/mm^2.

[6] = Accumulation of radioactivity in A431-CCK2R xenografts
[7] = Accumulation of radioactivity in A431-mock tumours

Row | SMILES | IC50 (CCK2 receptor) [nM] | LogDpH7.4 ± SD [1] | remaining at 1 h, 0.5 µM (physchem) [%] | remaining at 2 h, 0.5 µM (physchem) [%] | remaining at 4 h, 0.5 µM (physchem) [%] | Internalized fraction, % of total activity (A431-CCK2R cells) | Membrane bound, % of total activity (A431-CCK2R cells) [%] | Internalized fraction, % of total activity (A431-mock cells) [%] | Membrane bound, % of total activity (A431-mock cells) [%] | tissue uptake at 1 h (in vivo [2]) [%ID/g] | tissue uptake at 2 h (in vivo [2]) [%ID/g] | tissue uptake at 4 h (in vivo [2]) [%ID/g] | tissue uptake at 2 h (in vivo [3]; 0.05 nmol, Kidney uptake) [%ID/g] | tissue uptake at 2 h (in vivo [3]; [6]) [%ID/g] | tissue uptake at 2 h (in vivo [3]; [7]) [%ID/g] | Ratio of CCK2R-positive tumours and A431-mock xenografts [4] | Time after injection from which cancerous tissue could be well delineated by fluorescence imaging [5] [h] | Persistence of fluorescence signal in the kidneys [5]
1 | CCCC[C@@H](C(=O)N[C@@H](CC(=O)O)C(=O)N[C@@H](Cc1cccc2ccccc12)C(N)=O)N(C)C(=O)[C@H](Cc1c[nH]c2ccccc12)NC(=O)CCOCCOCCOCCOCCn1cc(CNC(=O)CCP(=O)(O)CN2CCN(CP(=O)(O)CCC(=O)NCc3cn(CCCNC(=O)CCCCC[N+]4=C(C=CC=CC=C5N(C)c6ccc7c(S(=O)(=O)O)cc(S(=O)(=O)O)cc7c6C5(C)C)C(C)(C)c5c4ccc4c(S(=O)(=O)O)cc(S(=O)(=O)O)cc54)nn3)CCN(CP(=O)(O)CCC(=O)NCc3cn(CCOCCOCCOCCOCCC(=O)N[C@@H](Cc4c[nH]c5ccccc45)C(=O)N(C)[C@@H](CCCC)C(=O)N[C@@H](CC(=O)O)C(=O)N[C@@H](Cc4cccc5ccccc45)C(N)=O)nn3)CC2)nn1 (single isomer, unassigned) [CyTMG] | 0.24 ± 0.16 |  |  |  |  |  |  |  |  |  |  |  |  |  |  |  |  | 
2 | CCCC[C@@H](C(=O)N[C@@H](CC(=O)O)C(=O)N[C@@H](Cc1cccc2ccccc12)C(N)=O)N(C)C(=O)[C@H](Cc1c[nH]c2ccccc12)NC(=O)CCOCCOCCOCCOCCn1cc(CNC(=O)CCP(=O)(O)CN2CCN(CP(=O)(O)CCC(=O)NCc3cn(CCCNC(=O)CCCCC[N+]4=C(C=CC=CC=C5N(C)c6ccc7c(S(=O)(=O)O)cc(S(=O)(=O)O)cc7c6C5(C)C)C(C)(C)c5c4ccc4c(S(=O)(=O)O)cc(S(=O)(=O)O)cc54)nn3)CCN(CP(=O)(O)CCC(=O)NCc3cn(CCOCCOCCOCCOCCC(=O)N[C@@H](Cc4c[nH]c5ccccc45)C(=O)N(C)[C@@H](CCCC)C(=O)N[C@@H](CC(=O)O)C(=O)N[C@@H](Cc4cccc5ccccc45)C(N)=O)nn3)CC2)nn1 (single isomer, unassigned) [[^68Ga]Ga-CyTMG, metal not drawn] |  | −1.78 ± 0.16 | 97.98 ± 0.2 | 97.56 ± 0.09 | 96.7 ± 1.15 | 10.59 ± 0.40% and 10.6% | 0.8 | 0.2 | 0.5 | 75.8 ± 3.88 | 124 ± 6.46 | 173 ± 13 | 119 ± 9.12 | 6.47 ± 1.47 | 2.46 ± 0.4 | 2.63 | ≥ 1 | up to 72 h
3 | CCCC[C@@H](C(=O)N[C@@H](CC(=O)O)C(=O)N[C@@H](Cc1cccc2ccccc12)C(N)=O)N(C)C(=O)[C@H](Cc1c[nH]c2ccccc12)NC(=O)CCOCCOCCOCCOCCn1cc(CCC(=O)N[C@H]2CCCN(O)C(=O)/C=C(/C)CCOC(=O)[C@@H](NC(=O)CCc3cn(CCOCCOCCOCCOCCC(=O)N[C@@H](Cc4c[nH]c5ccccc45)C(=O)N(C)[C@@H](CCCC)C(=O)N[C@@H](CC(=O)O)C(=O)N[C@@H](Cc4cccc5ccccc45)C(N)=O)nn3)CCCN(O)C(=O)/C=C(/C)CCOC(=O)[C@@H](NC(=O)CCc3cn(CCCNC(=O)CCCCC[N+]4=C(/C=C/C=C/C=C5/N(C)c6ccc7c(S(=O)(=O)O)cc(S(=O)(=O)[O-])cc7c6C5(C)C)C(C)(C)c5c4ccc4c(S(=O)(=O)O)cc(S(=O)(=O)O)cc54)nn3)CCCN(O)C(=O)/C=C(/C)CCOC2=O)nn1 [[^68Ga]Ga-CyFMG, metal not drawn] |  | −1.53 ± 0.10 | 99.1 ± 1.07 | 98.57 ± 0.47 | 99.3 ± 0.71 | 24.48 ± 1.33% and 24.5% | 0.9 | 1.3 | 0.7 | 45.9 ± 3.03 | 59.3 ± 5.04 | 74.3 ± 11.7 | 50.7 ± 8.42 | 4.02 ± 1.64 | 1.02 ± 0.13 | 3.94 | ≥ 3 | visibly declined from 24 h to disappear completely at 72 h after injection
